Patent US12410262B2, “Peptide conjugates of cytotoxins as therapeutics” (Cybrexa 2, Inc., priority 2019, dated 2025)

What was measured:
HCT116 = assay: cells; type: cell-based, human; settings: 96 h
Outline: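 DLD-1 WT (2500/well), FaDu and HeLa (5000/well) and HCT116 (3000/well) were grown in 10% FBS media and dosed in triplicate 24 h after plating. After 96 h of drug exposure at 37 °C, cells were fixed, Hoechst-stained and counted by imaging; percent growth delay was calculated versus untreated controls.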

[1] = Plasma pharmacokinetics of Compound 11 in a rat model; type: in vivo, Sprague Dawley rats; settings: single IV dose 5 mg/kg
Description: Male Sprague Dawley rats underwent jugular vein cannulation and insertion of a vascular access button (VAB, Instech Labs Cat #VABR1B/22) at Envigo Labs prior to shipment. Magnetic, aluminum caps (Instech Labs Cat #Cat #VABRC) were used to protect the access port for the jugular catheters allowing the animals to be housed 2 per cage on corn cob bedding for 4-5 days prior to the study. Rats were administered a single intravenous dose of 5 mg/kg Compound 11 prepared in a vehicle of 5% mannitol in citrate buffer. At 1, 2, 4, 8, 24 and 30 hours following compound administration, blood (250 μL) was collected into K2EDTA filled microtainers from fed rats. Plasma was isolated by centrifugation and 100 μL aliquots were transferred to 96-well polypropylene plates on dry ice. Samples were stored at −80° C. until processed for quantification of total peptide by ELISA and released exatecan by LC-MS/MS.
96-Well plates were coated with 100 μL/well of 0.1 μM BSA-labelled peptide prepared in 0.2 M Carbonate-Bicarbonate Buffer, pH 9.4 and incubated overnight at 4° C. […] Luminescence was read from the plate on a BioTek Cytation 5 plate reader.
For quantification of exatecan, a 20 μL plasma sample was added to a polypropylene autosampler vial. […] The samples were centrifuged for 5-10 minutes at 3700 rpm then analyzed via liquid chromatography tandem mass spectrometry (LC-MS/MS).

HCT116 xenografts = assay: Tumor and bone marrow pharmacokinetics in a mouse model; type: in vivo, athymic nude Foxn^nu mice; settings: mouse bearing HCT116 xenograft, single IP dose 10 mg/kg
Description: Six-week-old female athymic nude Foxn^nu mice were obtained from Taconic Labs (Cat #NCRNU-F) and were housed 5 per cage on Alpha-Dri bedding in a disposable caging system (Innovive). Human HCT116 cancer cells derived from colorectal carcinoma were diluted 1:1 in Phenol Red-free Matrigel and subcutaneously implanted into the left flank of each mouse at a density of 2.5×10^6 cells in 100 μL. When xenografts reached a minimal volume of 300 mm^3, mice were administered a single intraperitoneal injection of 10 mg/kg Compound 11 prepared in a vehicle of 5% mannitol in citrate. Tumor and bone marrow samples were collected from fed, anesthetized mice at 1, 2, 4, 8, 16, 24, 32 and 48 hours after compound administration. Total peptide concentrations in tumor and bone marrow were determined via ELISA.
96-well plates were coated with 100 μL/well of 0.1 μM BSA-labelled peptide prepared in 0.2 M Carbonate-Bicarbonate Buffer, pH 9.4 and incubated overnight at 4° C. Plates were washed 4× with an ELISA wash buffer (PBS+0.05% Tween 20), incubated for 2 hours at room temperature with Blocking Buffer (PBS+5% dry milk+0.05% Tween 20) (300 μL/well) and washed again 4× with ELISA wash buffer. […] Luminescence was read from the plate on a BioTek Cytation 5 plate reader.

[2] = Gastric toxicity study in a mouse model; type: in vivo, athymic nude Foxn^nu mice; settings: 5.2 μmoles/kg (20 mg/kg) IP once daily for 4 days
Description: Six-week-old female athymic nude Foxn^nu mice were obtained from Taconic Labs (Cat #NCRNU-F) and were housed 5 per cage on Alpha-Dri bedding in a disposable caging system (Innovive). Human HCT116 cells derived from colorectal carcinoma were diluted 1:1 in Phenol Red-free Matrigel and subcutaneously implanted into the left flank of each mouse at a density of 2.5×10^6 cells in 100 μL. When xenografts reached a minimal volume of 300 mm^3, mice were administered intraperitoneal doses of vehicle, or 5.2 μmoles/kg of either unconjugated exatecan (equivalent to 2.3 mg/kg exatecan) or Compound 11 (equivalent to 20 mg/kg Compound 11). Compounds were administered once daily for 4 days. At 6 hours after administration of the last dose, mice were euthanized by cervical dislocation and gross necropsy was conducted. Photographs were taken of the stomachs both in situ and ex vivo.

With `CC[C@@]1(O)C(=O)OCc2c1cc1n(c2=O)Cc2c-1nc1cc(F)c(C)c3c1c2[C@@H](NC(=O)O[C@H]1CCCC[C@@H]1SSC[C@H](NC(=O)[C@H](Cc1c[nH]c2ccccc12)NC(=O)[C@H](CC(C)C)NC(=O)[C@H](CC(C)C)NC(=O)[C@H](CC(=O)O)NC(=O)[C@H](CC(C)C)NC(=O)[C@H](CC(C)C)NC(=O)[C@H](CC(C)C)NC(=O)[C@@H](NC(=O)[C@H](CC(=O)O)NC(=O)[C@@H](NC(=O)[C@@H]1CCCN1C(=O)[C@H](Cc1ccccc1)NC(=O)[C@H](CC(C)C)NC(=O)[C@H](CC(C)C)NC(=O)[C@H](CC(=O)O)NC(=O)[C@H](CC(C)C)NC(=O)[C@H](Cc1ccc(O)cc1)NC(=O)[C@H](C)NC(=O)[C@H](CCCNC(=N)N)NC(=O)[C@H](Cc1c[nH]c2ccccc12)NC(=O)[C@@H]1CCCN1C(=O)[C@H](CC(N)=O)NC(=O)[C@H](CCC(N)=O)NC(=O)[C@H](CC(=O)O)NC(=O)[C@H](CC(=O)O)NC(=O)[C@H](C)N)[C@@H](C)O)[C@@H](C)O)C(=O)NCC(=O)O)CC3` [Compound 11] the IC50 (HCT116) was 22.6 nM, the stable in plasma [1] was “at least 30 h” and the “exatecan warhead released in circulation” value ([1]; after 30 h) was “less than 0.002%”. The “peptide concentration in tumor and bone marrow (tumor targeting)” value (HCT116 xenografts) was “effectively targets tumors” and the “gastric toxicity (stomachs in situ and ex vivo)” value [2] was “did not display the gastric toxicity”.
